Key:
[1] = tested on: COC(=O)[C@@H]1C(=O)C(C)=C2O[C@@]3(C[C@]2(C)[C@H]1C)[C@@H](C)CC[C@H]1C(C)(C)OC(=O)CC[C@@]13C; experiment: purified protein; details: 50 mM HEPES pH 7.5, 1 μM FeSO4, 500 μM ascorbate, 500 μM α-KG, 30 °C, 2 min, 0.1 μM enzyme
[2] = target: T1, NvfI (Aspergillus novofumigatus, UniProt A0A2I1BSX0); experiment: X-ray crystal structure, […] Å; format: binding; details: bidentate Fe ligand; binary (state I, monomer B) and ternary complex with asnovolin A (state III, monomer A)
T1 construct: recombinant from pET28a in E. coli Rosetta 2(DE3) pLysS, Ni-NTA purified, MonoQ and Superdex 200; monomer in solution, apparent 34 kDa
T1 sequence (A0A2I1BSX0 whole entry): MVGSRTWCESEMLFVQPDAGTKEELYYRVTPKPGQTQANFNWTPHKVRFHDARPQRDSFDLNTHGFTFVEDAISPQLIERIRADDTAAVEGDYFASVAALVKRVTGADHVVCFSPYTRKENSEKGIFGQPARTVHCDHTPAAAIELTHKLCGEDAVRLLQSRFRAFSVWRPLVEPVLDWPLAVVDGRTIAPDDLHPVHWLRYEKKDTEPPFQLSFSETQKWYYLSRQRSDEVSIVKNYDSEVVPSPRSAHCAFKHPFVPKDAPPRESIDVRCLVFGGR

Compound | Km [1] [µM] | kcat [1] [s⁻¹] | X-ray crystal structure, 1.9 Å [2]
NvfI (Aspergillus novofumigatus IBT 16806) | 25.9 ± 7.2 | 0.29 ± 0.04 | –
O=C(O)CCC(=O)C(=O)O [α-KG] | – | – | octahedral iron-center is coordinated by the bidentate α-KG and a water molecule

— paper PMC8292354, “Molecular insights into the endoperoxide formation by Fe(II)/α-KG-dependent oxygenase NvfI” (Nature Communications, 2021)
